# Measurements published in patent US9879306B2, “Luciferase biosensors for cAMP” (PROMEGA CORPORATION, priority 2008, dated 2018).
# T1: GPR41 (Homo sapiens, UniProt O14843)
# T1 sequence (O14843 1-346): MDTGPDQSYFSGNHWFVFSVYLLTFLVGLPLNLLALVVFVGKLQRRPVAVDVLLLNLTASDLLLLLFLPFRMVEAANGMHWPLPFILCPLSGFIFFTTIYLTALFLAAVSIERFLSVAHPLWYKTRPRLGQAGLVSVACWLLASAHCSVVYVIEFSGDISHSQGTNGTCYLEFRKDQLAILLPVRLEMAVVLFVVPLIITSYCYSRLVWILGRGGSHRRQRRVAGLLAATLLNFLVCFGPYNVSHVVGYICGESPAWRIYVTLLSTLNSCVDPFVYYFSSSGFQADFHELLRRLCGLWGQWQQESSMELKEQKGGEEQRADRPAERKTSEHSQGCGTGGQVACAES
# Assays:
# GPR41 [1] = target: T1, GPR41; test: Sodium proprionate CRC with biosensor variants in HEK293 cells stably expressing GPR41; format: cell-based; settings: for Fold Response Na proprionate + FSK(1 μM): with FSK 1 μM; for Fold Response Na proprionate: without FSK, ratio of induced to uninduced signal
# Procedure: (§1) After 24 hours, the cells were transiently transfected with one of the cAMP biosensor variants (Tables 7A and 7B). After another 24 hours, the cells were equilibrated for 2 hours at room temperature using 5 mM EF-luc in CO2 independent media with 10% FBS. Prior to the addition of the compounds, luminescence was measured. The compounds (12× stock in CO2 independent media without FBS) were then added to the cells. For GPR41 expressing cells, sodium proprionate CRC was added. […] The cells were allowed to incubate another 30 minutes and luminescence read on a Varioskan Flash. EC50 values and fold responses were calculated for each of the clones with each of the compounds with or without FSK. In addition, variants […]7 (Example VIIB), 16A2 (Example VIIB) and GS358 were also screened.
# GPR41 [2] = test: as above; format: cell-based; settings: ratio of RLU of FSK treated well to untreated well
# Procedure: as §1
Molecule,Fold Response Na proprionate + FSK(1 μM) (GPR41 [1]) [fold],Fold Response Na proprionate (GPR41 [1]) [fold],Fold Signal Change (GPR41 [2]) [fold]
"L9-ILY: L9 background with Luc2.0 F369I, F518L and RIIβB F407Y; SEQ ID NO:82, 83 (protein) MPGAVGKVVPFIEAKVVDLDTGKTLGVNQRGELCVRGPMIMSGYVNNPEATNALIDKDGWLHSGDIAYWDEDEHFFIVDRLKSLIKYKGYQVAPAELESILLQHPNIFDAGVAGLPDDDAGELPAAVVVLEHGKTMTEKEIVDYVASQVTTAKKLRGGVVLVDEVPKGLTGKLDARKIREILIKAKKGSIAGCGDAGEGMYESFIESLPILKSLEFSARLKVVDVIGTKVYNDGEQIIAQGDSADSFYIIESGEVKITMKRKGKSEVEENGAVEIARCSRGQYFGELALVTNKPRAASAHAIGTVKCLAMDVQAFERLLGPCMEIMKRNIATYEEQLVALYGTNMDIVAKNIKKGPAPLYPLEDGTAGEQLHKAMKRYALVPGTIAFTDAHIEVDITYAEYFEMSVRLAEAMKRYGLNTNHRIVVCSENSLQFFMPVLGALFIGVAVAPANDIYNERELLNSMGISQPTVVFVSKKGLQKILNVQKKLPIIQKIIIMDSKTDYQGFQSMYTFVTSHLPPGFNEYDFVPESFDRDKTIALIMNSSGSTGLPKGVALPHRTACVRFSHARDPIFGNQIIPDTAILSVVPFHHGFGMFTTLGYLICGFRVVLMYRFEEELFLRSLQDYKIQSALLVPTLFSFFAKSTLIDKYDLSNLHEIASGGAPLSKEVGEAVAKRFHLPGIRQGYGLTETTSAILITPEGV",4.91,3.34,161.2
"L9-L: L9 background with Luc2.0 F518L; SEQ ID NO:94, 95 (protein) MPGAVGKVVPFFEAKVVDLDTGKTLGVNQRGELCVRGPMIMSGYVNNPEATNALIDKDGWLHSGDIAYWDEDEHFFIVDRLKSLIKYKGYQVAPAELESILLQHPNIFDAGVAGLPDDDAGELPAAVVVLEHGKTMTEKEIVDYVASQVTTAKKLRGGVVLVDEVPKGLTGKLDARKIREILIKAKKGSIAGCGDAGEGMYESFIESLPFLKSLEFSARLKVVDVIGTKVYNDGEQIIAQGDSADSFFIIESGEVKITMKRKGKSEVEENGAVEIARCSRGQYFGELALVTNKPRAASAHAIGTVKCLAMDVQAFERLLGPCMEIMKRNIATYEEQLVALFGTNMDIVAKNIKKGPAPFYPLEDGTAGEQLHKAMKRYALVPGTIAFTDAHIEVDITYAEYFEMSVRLAEAMKRYGLNTNHRIVVCSENSLQFFMPVLGALFIGVAVAPANDIYNERELLNSMGISQPTVVFVSKKGLQKILNVQKKLPIIQKIIIMDSKTDYQGFQSMYTFVTSHLPPGFNEYDFVPESFDRDKTIALIMNSSGSTGLPKGVALPHRTACVRFSHARDPIFGNQIIPDTAILSVVPFHHGFGMFTTLGYLICGFRVVLMYRFEEELFLRSLQDYKIQSALLVPTLFSFFAKSTLIDKYDLSNLHEIASGGAPLSKEVGEAVAKRFHLPGIRQGYGLTETTSAILITPEGV",5.72,3.04,72.2
"L9-ILQY: L9 background with Luc2.0 F369I, F518L, K541Q and RIIβB F407Y; SEQ ID NO:80, 81 (protein) MPGAVGKVVPFIEAKVVDLDTGKTLGVNQRGELCVRGPMIMSGYVNNPEATNALIDKDGWLHSGDIAYWDEDEHFFIVDRLKSLIKYKGYQVAPAELESILLQHPNIFDAGVAGLPDDDAGELPAAVVVLEHGKTMTEKEIVDYVASQVTTAKKLRGGVVLVDEVPKGLTGKLDARKIREILIQAKKGSIAGCGDAGEGMYESFIESLPFLKSLEFSARLKVVDVIGTKVYNDGEQIIAQGDSADSFFIIESGEVKITMKRKGKSEVEENGAVEIARCSRGQYFGELALVTNKPRAASAHAIGTVKCLAMDVQAFERLLGPCMEIMKRNIATYEEQLVALYGTNMDIVAKNIKKGPAPFYPLEDGTAGEQLHKAMKRYALVPGTIAFTDAHIEVDITYAEYFEMSVRLAEAMKRYGLNTNHRIVVCSENSLQFFMPVLGALFIGVAVAPANDIYNERELLNSMGISQPTVVFVSKKGLQKILNVQKKLPIIQKIIIMDSKTDYQGFQSMYTFVTSHLPPGFNEYDFVPESFDRDKTIALIMNSSGSTGLPKGVALPHRTACVRFSHARDPIFGNQIIPDTAILSVVPFHHGFGMFTTLGYLICGFRVVLMYRFEEELFLRSLQDYKIQSALLVPTLFSFFAKSTLIDKYDLSNLHEIASGGAPLSKEVGEAVAKRFHLPGIRQGYGLTETTSAILITPEGV",,,152.7
